From PMC5062937, “Aadh2p: an Arxula adeninivorans alcohol dehydrogenase involved in the first step of the 1-butanol degradation pathway” (Microbial Cell Factories, 2016)

Experiments:
Test in all cases: purified protein
Assay type in all cases: biochemical, Blastobotrys adeninivorans
CCCCO = system: T1, CCCCO; conditions: oxidation, 1 mM NAD+, 50 mM Tris-HCl pH 9.0, 30 °C, pH 9.0
T1 construct: full length, N-terminal His6 tag (MHHHHHH then VPSPDI), expressed in A. adeninivorans G1212/YIC102-6H-AADH2, Ni-NTA purified; ORF 1068 bp, 356 residues printed; native 88 kDa, dimer

[1] = system: T2, NC(=O)c1ccc[n+]([C@@H]2O[C@H](COP(=O)(O)OP(=O)(O)OC[C@H]3O[C@@H](n4cnc5c(N)ncnc54)[C@H](O)[C@@H]3O)[C@@H](O)[C@H]2O)c1; conditions: oxidation, 100 mM ethanol, 50 mM Tris-HCl pH 9.0, 30 °C, pH 9.0, varied: cofactor
T2 construct: full length, N-terminal His6 tag (MHHHHHH then VPSPDI), expressed in A. adeninivorans G1212/YIC102-6H-AADH2, Ni-NTA purified; ORF 1068 bp, 356 residues printed; native 88 kDa, dimer

CCCC=O = system: T3, CCCC=O; conditions: reduction, 0.4 mM NADH, 50 mM sodium phosphate pH 7.5, 30 °C, pH 7.5
T3 construct: full length, N-terminal His6 tag (MHHHHHH then VPSPDI), expressed in A. adeninivorans G1212/YIC102-6H-AADH2, Ni-NTA purified; ORF 1068 bp, 356 residues printed; native 88 kDa, dimer

CC=O = system: T4, CC=O; conditions: reduction, 0.8 mM NADH, 50 mM sodium phosphate pH 7.5, 30 °C, pH 7.5
T4 construct: full length, N-terminal His6 tag (MHHHHHH then VPSPDI), expressed in A. adeninivorans G1212/YIC102-6H-AADH2, Ni-NTA purified; ORF 1068 bp, 356 residues printed; native 88 kDa, dimer

[2] = system: T5, NC(=O)C1=CN([C@@H]2O[C@H](COP(=O)(O)OP(=O)(O)OC[C@H]3O[C@@H](n4cnc5c(N)ncnc54)[C@H](O)[C@@H]3O)[C@@H](O)[C@H]2O)C=CC1; conditions: reduction, 20 mM acetaldehyde, 50 mM sodium phosphate pH 7.5, 30 °C, pH 7.5, varied: cofactor
T5 construct: full length, N-terminal His6 tag (MHHHHHH then VPSPDI), expressed in A. adeninivorans G1212/YIC102-6H-AADH2, Ni-NTA purified; ORF 1068 bp, 356 residues printed; native 88 kDa, dimer

6h-Aadh2p (Blastobotrys adeninivorans)
Km (CCCCO): 300 µM
kcat (CCCCO): 1310 s⁻¹
kcat/Km (CCCCO): 4.37e+06 M⁻¹ s⁻¹
Km [1]: 500 µM
kcat [1]: 2.2 s⁻¹
kcat/Km [1]: 4000 M⁻¹ s⁻¹
Km (CCCC=O): 500 µM
kcat (CCCC=O): 11900 s⁻¹
kcat/Km (CCCC=O): 2.37e+07 M⁻¹ s⁻¹
Km (CC=O): 26500 µM
kcat (CC=O): 15.2 s⁻¹
kcat/Km (CC=O): 600 M⁻¹ s⁻¹
Km [2]: 70 µM
kcat [2]: 14.7 s⁻¹
kcat/Km [2]: 224000 M⁻¹ s⁻¹
